In the DeepSol protein solubility set:

Test: soluble on expression in E. coli; label from the status in PepcDB or PDB records

Row | Sequence | soluble on expression in E. coli
1 | MPRYTESEWLTDFIIDALDSGRFWGVGWLDEQKRIFTVPGRNRRERMPEGFDDFYEAFLEERRRHGLPEIPETETGLGCFGRLLRTANRARQERPFTIYKGKMKLNRWIMTPRPYKGCEGCLVYLTQEPAMKNMLKALFGIYPHDDKHREKALRRSLRKKAQRREAARKQAAAVATPTTSSAAEVSSRSQSEDTESSDSENELWVGAQGFVGRDMHSLFFEEPEPSGFGSSGQSSSLLAPDSPRPSTSQVQGPLHVHTPTDLCLPTGGLPSPVIFPHETQGLLAPPAGQSQTPFSPEGPVPSHVSGLDDCLPMVDHIEGCLLDLLSDVGQELPDLGDLGELLCETASPQGPMQSEGGEEGSTESVSVLPATHPLESSAPGASVMGSGQELPDLGDLSELLCETASPQGPMQSEGGEEGSTESVSVLPATHPLESSAPGASVMGSSFQASDNVDDFIDCIPPLCRDDRDVEDQEKADQTFYWYGSDMRPKVLTATQSVAAYLSKKQAIYKVGDKLVPLVVEVYYFGEKVKTHFDLTGGIVICSQVPEASPEHICQTVPPYKCLLPRTAHCSVDANRTLEQTLDRFSMGVVAIGTNMGIFLKGLLEYPAYFVGNASRRRIGKCRPLSHRHEIQQAFDVERHNREPEGSRYASLFLGRRPSPEYDSDHYPVILHIYLAPFYHRD | not soluble
2 | MSLTERLSPVEIMGALVAFPTVSRDTNLPLVDWVETYLAGHGITAHRWVDPEQPHKAALFAHVGPWEEGAVVLSGHTDVVPIDGQPWDSDPFTVVERDGKYFGRGTCDMKGFDALAIWALVEGRYRDLKRPLQLALSFDEEVGCTGAPPMIVEMQNHLPKGSAVIVGEPSMMQAVTGHKGGFGYDTRVLGFEVHSSIMHTGVNAIMAAAPLIDWANHRNAENRAATPSALAAMFDPPWTTCHVGMISGGTAHNITAKECRFAMDFRIVPGEAKERWRDAYFAVAREVEAQMQAVHPEARIDLSEQFHVPPLVPEQEGEAEMLVRALTGDNAGHVVSYGTEAGQFQEAGYSAVICGPGDIAQAHQPNEFITVAQFDAGHGFMARLLDRLSEGHHHHHH | soluble
3 | AIARTDSSKMTDVESGVANFASSARAGRRNALPDIQSSAATDGTSDLPLKLEALSVKEDAKEKDEKTTQDQLEKPQNEEK | soluble
4 | MLLKALCIINALIIGIINADILSDPNYRIFRDISAIRQVVTLARPVKNVSTTELPTYYETNYNISRRVKRQACASSCAPLEKATTPAYEGLIATENFYITYSTDGSGCPIADLTCVGGDMATLDYLDQNGDIITLGDGGDDYNILEAQLKCFAFGWGAATATEVIDGNSLNCNVLTDIPVTTTTSTTSSTTTTTATSTTESTSTSTDSTTTESTTESTTESTSTSTDSTTTESTTESTTESTSTSTDSTTTESTSTSTDSTTTESTTESTTESTSTSTDSTTTSLPALPLILLQPSLPQNQLRSLPAHPLNLLQPSLPQNQLRSLPALPLILLQPSRQALPLILLQPSLPQNQLRSLPAHPRILPRPSLPALPLILLQPSLPQNQLRSLLAHPLILPRLSQQQNQLRSLPAHPPILLQPSLPQNQLRSLPALPLILLQPSLPLNQLRSLPAHPLILLQPSQQQNQLRSLPAHPLILPRPSLPLNQLRSLPAHPLILLQPSLPQNQLRSQPAHPLILPRLSQQAHPLIPPRPSRRALRLILPQLKLLLLRLTLQRQCQELHAVHLEVSGVNGLLTLLALQHVDLVHNKSTDVFALLKLIVEHARMGADVKIQNCNVGVCYFPLDSCCAGYTATVSGTLHICGPQPTTTTPAPNDETCCPLDGIWGAWGEWSVCTGTTCGNCGGSRTRTRVCASDSFCSCNGDTTESENCRLLSSWSEWTTTGTCNQTACGTCQTLTYTRTCLKTNGCFCMGSATKTDYCSRKPCATGTACCNSLTAQTVDGVSICGPVEAAEDETDPVPCTTTTPACCVLGGVWSEWSSGDACNDTCGNCGVTTLSRVCLSQDYNCACSGSTTKQSECAPAPCPFPRTSCCGARKKVIVGRTFECSSADDSDAAPSTLCAVDCCPAAGGYWSEWTTGGSCPTTCGSCSTVTQKRVCMSPSTCPCQGVSSRSVNCGITVCYFPDDSCCAGYSATVSGTQHICGPQPNYTTPYAPYDPTCTDNCCPETGIWSDWTSTPNQCRDYCGSCGNQTRTRTCTSDADGCPCQGPTTITEPCGTGVCYFPRLSCCPGYTATVEGNQHICGPLTTAVADPDKLNTCGVSCCPSAGIWGEWVSVSGCNDTCGSCGQETRKRKCLSLQYGCACTGNATDTSVCASSVCLFPRTSCCTGFKKMVNITGRTFYCGPLPVVPAFNPEQTTCCDPEKTGLWNDWGAWTTCSATCGGCGTQTRSRTCASAPYGCPCTGDLTETQSCAKQVCTTGAQCCAGKFVATGYDGAQYCQDNTPEVCTGTWTEWATLEGAVCNDTCGNCGIIPTSRYCFPSGCQCSGAYTGTQACANSVCLFPRTSCCAPYKKKIVGKTFACA | not soluble
5 | AALAEIVAQLNIYQSQVELIQQQMEAVRATISELEILEKTLSDIQGKDGSETLVPVGAGSFIKAELKDTSEVIMSVGAGVAIKKNFEDAMESIKSQKNELESTLQKMGENLRAITDIMMKLSPQAEELLAAVA | soluble
6 | TRAFKWTTNFNISFNKNKVLALSENQTALLTAAQFDQNYNGQSSYIAKVGLPMGLMYGYVYEGTYKYDDFNKSGNSYSLKPGVPHYSTETNTQPGMPKYADLNGDGVVDSNDRTIIGRGLPIHTGGFTNNFEYKGIDLSIFFQWSYGNDIMNANRLFFESSNNRSRELNQFASYANRWTPENPTSDIPAATNSSSNRVISSRIIEDGSYLRLKNVTVGYTFPAKLVKKWKIDKARVYVAAQNLWTCTGYSGYDPEVSVRNSALTPGLDYSSYPRAYSISFGVSLGF | not soluble
7 | MGSDKIHHHHHHMAKSALRVLEIMEFVATHKAGCATHTEISQALGIPKSSLTALLTDLQRPGYLELDRETGRYAIGSQVMFLAHAYLRNLNIVRLGTPVVHDVFLKLNVYTTMVIPKGDMCLVVCSESLPSPLAHSLSIGQHIPMLHSALGRAILAFLEPEEVERFLHDYTPTPYTDRTKTGIEEVRKALAQVRKAGFAHMQGEYLPGIIGIAVPVFNLENRPIAAIGIGIPAVEGTTEFEKRICKQLLHSADTLSRRLGAKLKPTPSKLLRKGEEE | not soluble
8 | MTIEKIDTLVIGAGQAGVAMSEHLSKQDVPHLVLERNRIAEQWRTGRWDSLVANGPAWHDRFPGLEFEEHDPDSFVPKEKIADYLVDYAKKFDAPIRTGIEVKNVERNTNGQGFIIETSQGTIEAKRVVSATGPFQVPVIPPIAKNEKITQIHSADYRNPEQLEDGAVLVVGAGSSGVQIADELQRSGRKVFLSTGPHDRPPRSYRNRDFCWWLGVLGEWDRESLEPGTEHVTIAVTGAHGGNGTVDFRALAHQGITLLGMTKEFNNGKVTFQKDLNTNVERGNKNYMDFLDSADAYIERNGLDLPEEPTARDVLSDPECMTNPILELDLAKEGITSIVWATGFALDYSWLNVDAFDENGKPAHQRGVSTEPGVYFVGQAWLSRRGSAFIWGVWHDAKHIAGHISTQRTYSAYQDASQRLEHHHHHH | soluble
9 | MAHHHHHHMSSYRSDVDPFKEIRVLPREAAQLRHHLSRINHALQTKYFVAAELSELALQPDRSDEFLALYKAEIYRVVAKLNMNAKKQYTVTVDPLRLTTGFEFKRGADRKDNLGTAVTAATVEGLTSPDVHAKWTASLVETSRLLAQQHAINPNCQALSSALQSTPSSQQTQGLNGGGGAAAVGSDVIGDASTCAIDSDVRKANKESFLFSTPPEFAGFAPSGASPGAP | not soluble
10 | THGWNFQVSANAAYNKNEVMDLKNGGARIWSGKYFNQEGYAINSIGGYIAEGLFKTEEEVANSATIPGTDTAPGDIKYRDINNDGKIDGEDRVYIGNTMPKWTFGLNLFAEWKGLDATFLFQGAADVQGYLAGPGVVGEMIGAKGKPSYMYRDCWDAETNPNGKFPRAFSSYRQNNSIYNPSSFWIVNSSYLRLKNFQLGYTLPKEWCNMMGISRIRVYYSGQNLLTFTKFDKGFDPESPEGGSSYPQVKTNTFGLNITF | not soluble
11 | MSLTKMRESEIIRMFIEEFDNHALGDDAGFVRFNDSWLLVTSDMLVWRTDVPDFMTPEEAGKKVVTMNVSDIAAMGGLPLAFFFSLGVPENTDEKTLRGIAKGINKGAKEYGVKIVSGDTNEAREIIIDGGAIGRGSRLLLRSNAKPGDLVCVTGELGRPLTALLLWLKGEEIPPKILEKAKNPKAREREGIELSNYANSAIDISDGLSKELWEIARSSNVRIVIDEDKIPVNEEVREIVKDPIKIALASGEEFELVFTIPKENLGNISFDFTIIGRVEEGEGVYIKREDKMERLPILGWEHLKGGDYVNLEGHHHHHH | soluble
12 | MESYLTVIEQNGQLLVDSREVAEMVGKRHTDLLRSIDGYVAILLNAKLRSVEFFLESTYKDATGRSLKHFHLTRKGCDMVANKMTGAKGVLFTAQYVSKFEEMEKALKARPSLIDTYLDMNEDERAIAYFTERKAKRELQEQLTLAEPKVEKYDRFLNTDGLMKIGQVAKAIGIKGMGQNNLFRFLRENKVLIDGTNKNAPYQKYVERGFFQVKTQETSVGIKTITLVTPKGADFIVDLLKKHGHKREIAS | not soluble
13 | GPGSMKQIAHYFRIKTAKHAVLEAGDNIRELCSVLSFPLIIKHVSGYSSVGMDKSCKVYDMDSLHSRVTRFIEQYQIALVEEFVVGDEATILVCADSTQPDGIRVFPPVMVQFPEGEDFKHFHLKWETYEGMEWRLMPEDDPALSQVLSTARTSFMHMMGGVGYGRVDVRIDRSTHDVVFLEINPNCGVMYPPGQEGSADWILRLTPGFNQREFTLLQIKEALRRNERMQPLFRCVYNPAQGYRMCATRDISAGSPIFEAEGQSVRLYTKPHVKATRGKEEYDQFAQKAWPLGGDGHYYALWDNEPTNWRTFSHSCVPNMNFGPNRSLNLYATRDIARGEELTMDYRLFRDETTPPFQCCCGSECCEGWIAMNGGKLTKEENGNNY | not soluble
14 | MNILLCCSAGMSTSLLVTKMEAAAKARGLEGKIWAVSGDAVKTNIDQADVLLLGPQVRYMLSSMKTLADERNVGIDVINPMHYGMMNGEAVLDHALTLKK | not soluble
15 | MGSDKIHHHHHHASGFTLGKDILSYVAVGDSFTEGLDDPYPDSARFPQGRYRGWADRFAEHLARHVREVRYANLAVRGKLLRQILTEQLPRAVELRPDLVTLCAGGNDILRPGSDPDTLADAFEGAVRQLRDTGADVVIFTGFDTGFQPVMRHLRGKIATYNMHLRGIADRYHCRVVDLWSMKIFQDRRAWSDDRLHLSAEGHRRLALRVCEVMGVPVDEDWNAPWPQEPPAPWHQARQEDLRWARQHLVPWIHRRLTGRSSGDGVRPKRPNLEPLVRR | not soluble
16 | MSLRKIHVTIIAPYEGLAETFKRIQNEFEHLDMTIHIADLQQSLPLLTTEVQAQTDIFISRGGTAKVIRTRTEKPVVEVPISGFDILRMILLIQAEREQTEIIAFENISLSFTKVTELIETDIPITAVMKEEEVEPAIIAAKAAGRKMIVGDAITTSLANKHGLEGILITSGEESVRTALEQADLLGRKMNDSKQEGHHHHHH | soluble
17 | MNQTKLNQRLKQQQLFDIYGELLTKRQACYFNEYINLDLSMQEIADKYQVKKSSIHQHIKTCNLIFNRFEAKLQLFKKQQLRLKLYEKITDPQLREQLIKLR | soluble
18 | SEAWEYFHLAPARAGHHPNQYATCRLCGRQVSRGPGVNVGTTALWKHLKSMHREELEKSGHGQ | soluble
19 | MDKFKSMTELKELTKEGKDWEIECENRSSIVTILALHGGGIEPATTELAYTIAHCGDYNYFSFKGMRSKGNNELHVTSTHYDDQIALDLVRGSQRTVAIHGCEGNESVAYIGGSDDRLIELITESLEDIGISVREAPHHISGTQENNIVNMTQTQGGVQLELTAQLRKELFKNRKSSRKNRENKDNWDDLMYDFADAMKKAIERALEHHHHHH | soluble
20 | GAERTIQLPKPDMNRAGLLMKALSERHSTREYASKALSNTDLSDLLWAANGINRSSEGKRTAPSAMNRQDIDIYVVLPQGTYLYDAKGHKLNLISEGDHRSAVAGGQAFVNNAPVSLVLVSDLSKLGDAKSNHVQLMGAMDAGIVSQNISLFCSAARLATVPRASMDLVRLKAALKLKDTQMPMMNHPVGYFK | soluble
